Target: the molecule itself
Assay: AUC

B1: hCCL5-K25S (ligand)
chain: SPYSSDTTPCCFAYIARPLPRAHISEYFYTSGKCSNPAVVFVTRKNRQVCANPEKKWVREYINSLEMS
stoichiometry N: ~200
